Assay results: paper PMC6406002, “Comparison of the functional properties of trimeric and monomeric CaiT of Escherichia coli” (Scientific Reports, 2019)

Target: the molecule itself
Assay: SEC; gel filtration (Superdex 10/300 GL) after incubation at given temperature for 60 min in 100 mM potassium phosphate pH 7.5, 2 mM β-mercaptoethanol, 0.04% DDM

B1: L-carnitine/γ-butyrobetaine antiporter CaiT of Escherichia coli, wild-type (natural protein)
chain: not shown
notes: CaiT, L-carnitine/γ-butyrobetaine antiporter of E. coli; the caiT gene cloned into pET21a; also called CaiT(WT); WT; source: E. coli JW0039 with pET21a/caiT, purified (Ni-NTA), in detergent (DDM)
Q: Does B1 bind?
A: Result: binds
